Measurements published in US20220235120A1 (UNIVERSITY OF MARYLAND BALTIMORE, published 2022).

What was measured:
[1] = target: Clostridium difficile toxin A (TcdA) (Clostridium difficile, UniProt P16154 1-2710); test: cell-based or functional assay
[2] = target: Clostridium difficile toxin B (TcdB) (Clostridium difficile, UniProt P18177 2-2366); test: cell-based or functional assay
Clostridium difficile toxin B (TcdB), sequence (P18177 2-2366 limits assumed): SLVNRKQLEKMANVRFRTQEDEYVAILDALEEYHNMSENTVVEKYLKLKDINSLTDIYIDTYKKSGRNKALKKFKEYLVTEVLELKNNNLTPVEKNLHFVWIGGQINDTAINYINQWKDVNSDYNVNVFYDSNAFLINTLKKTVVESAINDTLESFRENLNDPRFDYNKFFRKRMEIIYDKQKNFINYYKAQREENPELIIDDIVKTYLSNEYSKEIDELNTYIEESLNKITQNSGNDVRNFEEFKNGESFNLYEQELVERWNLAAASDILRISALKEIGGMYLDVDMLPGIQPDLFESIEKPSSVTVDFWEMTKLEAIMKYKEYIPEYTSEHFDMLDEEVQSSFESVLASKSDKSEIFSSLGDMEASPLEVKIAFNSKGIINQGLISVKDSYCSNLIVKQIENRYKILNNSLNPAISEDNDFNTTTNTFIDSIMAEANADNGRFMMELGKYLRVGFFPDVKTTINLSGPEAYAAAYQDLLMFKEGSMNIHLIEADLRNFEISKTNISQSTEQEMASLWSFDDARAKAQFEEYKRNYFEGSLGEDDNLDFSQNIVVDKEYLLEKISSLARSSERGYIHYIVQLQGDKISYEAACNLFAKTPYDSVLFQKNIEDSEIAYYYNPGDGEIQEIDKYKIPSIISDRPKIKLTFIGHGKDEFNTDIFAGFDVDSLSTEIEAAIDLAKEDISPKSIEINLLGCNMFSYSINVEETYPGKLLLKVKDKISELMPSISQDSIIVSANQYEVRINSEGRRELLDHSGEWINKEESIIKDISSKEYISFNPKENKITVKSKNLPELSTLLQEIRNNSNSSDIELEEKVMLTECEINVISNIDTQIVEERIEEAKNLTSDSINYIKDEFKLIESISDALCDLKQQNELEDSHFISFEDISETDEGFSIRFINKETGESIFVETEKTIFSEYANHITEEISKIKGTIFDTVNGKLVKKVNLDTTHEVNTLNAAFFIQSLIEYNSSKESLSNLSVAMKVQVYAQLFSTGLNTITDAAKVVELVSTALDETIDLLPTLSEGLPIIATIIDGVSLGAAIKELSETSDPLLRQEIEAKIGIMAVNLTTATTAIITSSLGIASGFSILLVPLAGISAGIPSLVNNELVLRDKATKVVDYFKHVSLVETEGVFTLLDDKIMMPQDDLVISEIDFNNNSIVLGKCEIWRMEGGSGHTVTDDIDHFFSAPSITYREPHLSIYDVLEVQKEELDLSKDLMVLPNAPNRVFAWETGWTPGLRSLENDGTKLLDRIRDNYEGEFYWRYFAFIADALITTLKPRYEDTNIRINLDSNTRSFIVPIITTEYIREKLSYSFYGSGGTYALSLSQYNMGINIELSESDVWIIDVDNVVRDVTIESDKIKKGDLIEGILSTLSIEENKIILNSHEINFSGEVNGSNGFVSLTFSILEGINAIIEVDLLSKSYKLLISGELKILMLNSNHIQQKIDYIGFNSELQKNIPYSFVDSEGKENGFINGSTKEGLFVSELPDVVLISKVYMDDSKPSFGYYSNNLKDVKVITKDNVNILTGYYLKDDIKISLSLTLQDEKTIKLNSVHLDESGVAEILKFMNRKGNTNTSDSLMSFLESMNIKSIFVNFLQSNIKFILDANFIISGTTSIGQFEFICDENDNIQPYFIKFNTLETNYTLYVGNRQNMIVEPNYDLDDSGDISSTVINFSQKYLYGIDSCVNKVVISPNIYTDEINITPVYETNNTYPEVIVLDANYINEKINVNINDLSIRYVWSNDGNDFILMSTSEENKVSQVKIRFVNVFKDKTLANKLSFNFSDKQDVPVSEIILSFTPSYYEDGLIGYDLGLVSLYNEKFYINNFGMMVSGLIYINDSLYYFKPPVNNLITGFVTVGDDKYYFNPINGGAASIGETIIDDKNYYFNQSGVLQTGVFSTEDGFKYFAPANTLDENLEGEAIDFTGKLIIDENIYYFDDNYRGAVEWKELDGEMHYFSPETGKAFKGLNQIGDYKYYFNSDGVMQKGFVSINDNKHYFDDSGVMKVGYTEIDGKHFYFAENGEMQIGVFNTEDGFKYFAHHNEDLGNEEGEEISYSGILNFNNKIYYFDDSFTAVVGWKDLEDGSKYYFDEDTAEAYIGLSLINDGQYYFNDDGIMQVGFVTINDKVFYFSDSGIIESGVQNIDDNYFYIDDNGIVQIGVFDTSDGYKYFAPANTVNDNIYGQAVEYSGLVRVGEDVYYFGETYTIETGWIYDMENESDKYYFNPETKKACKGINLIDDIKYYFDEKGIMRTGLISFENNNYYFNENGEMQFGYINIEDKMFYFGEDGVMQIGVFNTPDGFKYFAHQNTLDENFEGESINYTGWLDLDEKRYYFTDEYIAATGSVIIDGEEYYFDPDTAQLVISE

Clostridium difficile toxin A (TcdA), sequence (P16154 whole entry): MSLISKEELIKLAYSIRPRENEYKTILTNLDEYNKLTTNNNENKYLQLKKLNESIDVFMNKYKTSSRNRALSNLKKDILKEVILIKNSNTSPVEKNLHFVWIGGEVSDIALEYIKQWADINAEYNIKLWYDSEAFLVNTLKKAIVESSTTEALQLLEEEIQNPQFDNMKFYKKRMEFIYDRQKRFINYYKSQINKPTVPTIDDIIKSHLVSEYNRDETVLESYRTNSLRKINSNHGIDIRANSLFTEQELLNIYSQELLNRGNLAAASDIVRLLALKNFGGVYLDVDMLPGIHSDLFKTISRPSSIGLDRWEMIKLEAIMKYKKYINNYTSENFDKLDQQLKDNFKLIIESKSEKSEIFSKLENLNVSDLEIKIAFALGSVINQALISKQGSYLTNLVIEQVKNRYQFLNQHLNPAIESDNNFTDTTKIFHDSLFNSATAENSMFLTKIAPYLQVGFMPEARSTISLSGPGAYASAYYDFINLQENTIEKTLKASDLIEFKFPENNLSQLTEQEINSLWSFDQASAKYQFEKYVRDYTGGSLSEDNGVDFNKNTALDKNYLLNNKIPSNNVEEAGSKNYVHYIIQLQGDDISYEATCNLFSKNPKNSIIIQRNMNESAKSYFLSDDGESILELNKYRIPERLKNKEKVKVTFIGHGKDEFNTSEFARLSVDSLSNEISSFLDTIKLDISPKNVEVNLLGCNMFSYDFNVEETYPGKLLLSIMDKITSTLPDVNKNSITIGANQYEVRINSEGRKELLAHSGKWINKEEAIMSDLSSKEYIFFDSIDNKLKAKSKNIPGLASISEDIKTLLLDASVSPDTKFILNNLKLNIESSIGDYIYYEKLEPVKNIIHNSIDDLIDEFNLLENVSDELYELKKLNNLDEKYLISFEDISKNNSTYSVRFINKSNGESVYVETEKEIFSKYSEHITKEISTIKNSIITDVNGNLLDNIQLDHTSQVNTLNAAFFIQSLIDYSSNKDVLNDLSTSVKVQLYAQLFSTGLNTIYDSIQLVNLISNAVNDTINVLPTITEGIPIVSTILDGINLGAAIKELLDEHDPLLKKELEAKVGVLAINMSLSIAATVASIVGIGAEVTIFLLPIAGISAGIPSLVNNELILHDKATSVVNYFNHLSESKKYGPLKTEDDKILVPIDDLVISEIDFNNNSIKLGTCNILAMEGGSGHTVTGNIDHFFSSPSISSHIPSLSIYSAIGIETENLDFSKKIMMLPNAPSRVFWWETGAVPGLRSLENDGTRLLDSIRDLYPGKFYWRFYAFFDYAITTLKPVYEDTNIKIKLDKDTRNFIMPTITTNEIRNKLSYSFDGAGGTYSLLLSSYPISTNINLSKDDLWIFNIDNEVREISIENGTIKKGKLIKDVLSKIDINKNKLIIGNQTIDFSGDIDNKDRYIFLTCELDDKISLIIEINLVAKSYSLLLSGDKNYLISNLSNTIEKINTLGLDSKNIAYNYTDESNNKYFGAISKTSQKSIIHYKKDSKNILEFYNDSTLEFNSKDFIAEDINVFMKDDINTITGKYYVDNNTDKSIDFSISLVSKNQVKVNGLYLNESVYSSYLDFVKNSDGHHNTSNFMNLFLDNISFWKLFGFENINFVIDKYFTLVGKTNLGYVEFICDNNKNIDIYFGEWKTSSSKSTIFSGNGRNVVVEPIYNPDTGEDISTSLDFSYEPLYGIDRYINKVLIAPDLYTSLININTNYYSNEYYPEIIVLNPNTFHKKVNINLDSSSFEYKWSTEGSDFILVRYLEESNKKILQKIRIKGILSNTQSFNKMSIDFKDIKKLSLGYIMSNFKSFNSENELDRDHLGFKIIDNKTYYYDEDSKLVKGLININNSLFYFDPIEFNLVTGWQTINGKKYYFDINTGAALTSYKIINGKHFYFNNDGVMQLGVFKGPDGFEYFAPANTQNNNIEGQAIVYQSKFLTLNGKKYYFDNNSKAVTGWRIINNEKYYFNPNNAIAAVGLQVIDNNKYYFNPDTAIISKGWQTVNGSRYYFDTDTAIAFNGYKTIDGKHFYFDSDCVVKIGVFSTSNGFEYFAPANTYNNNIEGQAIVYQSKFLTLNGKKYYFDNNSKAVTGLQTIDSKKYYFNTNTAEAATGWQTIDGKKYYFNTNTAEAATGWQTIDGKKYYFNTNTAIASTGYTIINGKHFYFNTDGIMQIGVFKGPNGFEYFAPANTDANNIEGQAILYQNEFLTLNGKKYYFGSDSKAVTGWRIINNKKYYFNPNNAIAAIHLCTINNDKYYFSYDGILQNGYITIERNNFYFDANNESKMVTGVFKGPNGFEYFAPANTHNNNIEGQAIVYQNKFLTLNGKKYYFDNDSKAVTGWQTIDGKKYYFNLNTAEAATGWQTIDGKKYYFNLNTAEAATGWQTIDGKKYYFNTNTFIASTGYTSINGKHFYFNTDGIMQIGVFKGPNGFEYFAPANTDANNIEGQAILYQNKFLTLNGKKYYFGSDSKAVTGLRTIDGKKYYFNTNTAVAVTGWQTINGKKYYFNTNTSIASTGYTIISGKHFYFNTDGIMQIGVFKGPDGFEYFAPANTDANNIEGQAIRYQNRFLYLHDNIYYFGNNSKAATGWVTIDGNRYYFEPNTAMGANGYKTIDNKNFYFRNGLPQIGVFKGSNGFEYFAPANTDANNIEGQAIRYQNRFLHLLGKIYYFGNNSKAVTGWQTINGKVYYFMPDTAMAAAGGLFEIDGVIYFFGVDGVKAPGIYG

B1: FZ003 binding agent (tetra-specific, octameric VHH-IgG1 with CDR-grafted humanized VHHs) (bispecific antibody)
light: EVQLLESGGGLVQPGGSLRLSCAASGFTFSDYVMTWVRQAPGKGPEWIATINTDGSTMRDDSTKGRFTISRDNSKNTLYLQMNSLRAEDTAVYYCARGRVISASAIRGAVRGQGTLVTVSSGGGGSGGGGSGGGGSEVQLLESGGGLVQPGGSLRLSCAASGSIAGFETVTWSRQAPGKSLQWVASMTKTNNEIYSDSVKGRFTISRDNSKNTVYLQMNSLRAEDTAVYYCKGPELRGQGTLVTVSSRTVAAPSVFIFPPSDEQLKSGTASVVCLLNNFYPREAKVQWKVDNALQSGNSQESVTEQDSKDSTYSLSSTLTLSKADYEKHKVYACEVTHQGLSSPVTKSFNRGEC
heavy: not shown
- survival in mouse systemic toxin challenge (toxins pre-incubated with antibody) [1]: > 1000 fold more potent than the Merck antibody
- survival in mouse systemic toxin challenge (toxins pre-incubated with antibody) [2]: > 1000 fold more potent than the Merck antibody
